Reference: the supplement of paper PMC9170038

Key:
MS2 coat protein [1] = assay: apparent KD of MS2 coat protein; designed switch direction (-1 OFF switch, 1 ON switch): 1; higher = weaker reporter binding; conditions: Eterna round: R98
Experimental: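 RNA-MaP: designed FMN/MS2 RNA switches (84 nt design region) are transcribed on-chip within common flanks and titrated with SNAP-549-labelled MS2 coat protein (about 1-3000 nM) in 100 mM Tris pH 7.5, 80 mM KCl, 4 mM MgCl2, without or with 200 uM FMN. Median apparent KD per design; activation ratio = KD,OFF / KD,ON.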

MS2 coat protein [2] = assay: apparent KD of MS2 coat protein, switch ON state; designed switch direction (-1 OFF switch, 1 ON switch): 1; higher = weaker reporter binding; conditions: FMN input: 0 or 200 uM; Eterna round: R93 (includes R88 designs)
How it was run: (§1)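 The designed RNA switches were transcribed on-chip from Illumina sequencing clusters. In 100 mM Tris-HCl pH 7.5, 80 mM KCl and 4 mM MgCl2, without or with constant ligand, they were titrated with SNAP-549-labelled MS2 coat protein from 0.7 or 1.5 nM to 3 µM in twofold steps. Apparent KD is the per-design median of normalised cluster binding-curve fits.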

MS2 coat protein [3] = assay: apparent KD of MS2 coat protein, switch OFF state (with FMN for OFF switches, without FMN for ON switches); designed switch direction (-1 OFF switch, 1 ON switch): 1; higher = weaker reporter binding; conditions: FMN input: 0 or 200 uM; Eterna round: R93 (includes R88 designs)
How it was run: as §1

| Sequence | apparent KD of MS2 coat protein (MS2 coat protein [1]; input ligand: FMN 200 uM) [nM] | apparent KD of MS2 coat protein (MS2 coat protein [1]; input ligand: none) [nM] | apparent KD of MS2 coat protein (MS2 coat protein [2]) [nM] | apparent KD of MS2 coat protein (MS2 coat protein [3]) [nM] |
| --- | --- | --- | --- | --- |
| CCCUUCAGAAGAGGGACAUGAGGAUCACCCAUGUAGGCUGCACAGGAUAUCGAUCGGAGGCGGUACGAGAAGGGUGAUGUCAUU [Riorrebi] | 27.9 | 36.2 |  |  |
| GCUUGCGACGCAGGAUAUGGGUGCCUAAACACGAGGAUCACCCGUGUACAGGAAGCUAAAUGCUCUCAGAAGGGCGUCGCAGGC [United States 9 - Jieux - Same State NG 2] | 17.5 | 46.7 |  |  |
| GACGGAUUCUUAGGAUAUGCUCAGGAAUACUGAGCAGAAGGAAGAAUAACCUGAGGAUCACCCAGGUAAUACUGAACGUCAAUA [Same State NG1 - A3C, U17G Submission 9A] | 23.7 | 58.1 |  |  |
| GGAUCGCUUGGAGGAUAUCCAACUAUCCUAGUUGGAGAAGGCCAAGCUACAGAGCUAAGCUUGGAAGUCACUUCGGAUCCACAC [pwkr ssNG1 F9.4.4] | 39.2 | 21.7 |  |  |
| CGAGACACUUGAGGAUAUGCUCAGGAAUACUGAGCAGAAGGCAGGGAAACCUGAGGAUCACCCAGGUAACUGGAAAGUCUCGAA [Same State NG1 - A3C, U17G Submission 5A] | 19 | 29.2 |  |  |
| GCUGUCGCGUGAGGAUAUGGUCGGCAGUGCUGACCAGAAGGCAUGUCGAUAGACAUGAGGAUCACCCAUGUGGUUAGGGCGGCU [salish99_SSNG1_R02_015] | 464 | 491 |  |  |
| GCCAUCGUAUGAGGAUAUGGCACCGAAACGGUGCCAGAAGGCAUGUCAAUAGACAUGAGGAUCACCCAUGUAUUAUCGAUGGCA [MatMod 1 - Jieux - Same State NG 1] | 46.9 | 469 |  |  |
| UCCGCUAUCGCAGGAUAUUACAUGGGAAAGAAUACAUGAGGAUCACCCAUGUAAAAGAUCAUAAAUAAGAAGGGCGAUAGCGGA [Lame State 8 - Jieux - Same State NG 2] | 123 | 654 |  |  |
| CCAAUAUAGUGAGGAUAUGCACAGGAUCACCGUGUAGAAGGCAUCAGGUAGAAGGUGCAGAGGAUCACCCUGUAAGGAUAUACA [pwkr2 ssNG1 DX.7] | 129 | 406 |  |  |
| AUAAUAACUUGAGGAUAUCGAGUGGAAUACACUCGAGAAGGCAGGGAAACCUGAGGAUCACCCAGGUAAAUAAUAAUAAUAAUA [Same State NG1 - A3C, U17G Submission 1C] | 22.7 | 21.3 |  |  |
| GUGUAUAGCCUCGAGGAUAUCCUGUAAUGCACAUGAGGAUCACCCAUGUAUGAGCGAGUUUUUUGGGAGAAGGCGAGUUAUCGGU [JR_SS002_Sub1709] |  |  | 12.9 | 24.2 |
| AAAAAAAAAAGUGAGGAUAUGUGAUCGGUGACAUGAGGAUCACCCAUGUGAGGCCUUCGGGCCGGACAGAAGGCACAAAAAAAAA [Same State 2-X] |  |  | 78.1 | 257 |
| AGAAAUAAAAGAGAGGAUAUCUUAAAGAAAACAUGAGGAUCACCCAUGUAAAAGAAAAUAAAAUGGGAGAAGGCUCAUAAUAAAG [JL Skelter Mod 4 In the Red] |  |  | 151 | 109 |
| AGGAAACAUGAGGAUCACCCAUGUAAGAUAAACACAGGAUAUGCGAAAAGAAACAAAGAAGCAGAAGGGUGAAGAA [75%, Ex5 sub 1, 1] |  |  | 20.6 | 35.6 |
| AAACUGGAGGACAAGGAUAUGUGCUCUACGACAUGAGGAUCACCCAUGUGAGACGUAGUAGUGAAACAGAAGGUGUCCUAUUGUU [Qulece] |  |  | 11.6 | 27.4 |
| AAUAAACAUGAGGAUCACCCAUGUUUUAAUAGUUGAGGAUAUACGGGUGAAAAUAGCAUAGUAGAAGGCGAGUGUA [SameState1 Malc#13] |  |  | 31.2 | 36.8 |
| UCACUCACGUCAGGAUAUGGAUCGGAAAACGAUCCAGAAGGGACCUGCAAACUUGAGGAUCACCCAGGUUCCAAUAACGAGUGA [SameSame 12 - Jieux - Same State NG 1] | 194 | 307 |  |  |
| AGGAAACAUGAGGAUCACCCAUGUAUAAAAAUGGAAGGAUAUACUAAGACGAAAGUCAUAGUAGAAGGUCUAAAAA [76%, Meechl, 10] |  |  | 16.6 | 20.7 |
| ACGUCCCGCAGAGGAUAUGUUGUUCGGCCUACAUGAGGAUCACCCAUGUCAAAGGGCUGAUCCCGACAGAAGGCUGAAGGAUAC [Qudiator] | 24.8 | 57.5 |  |  |
| GGUUGACGACAAUUACAUGAGGAUCACCCAUGUUGUGGGAUGCAGGAUAUGUGGUAUAUUAAUUAACAGAAGGGCAAUAAUUUU [JR_SSNG3_Sub062] | 51 | 33.8 |  |  |

| Sequence | apparent KD of MS2 coat protein (MS2 coat protein [1]; input ligand: FMN 200 uM) [nM] | apparent KD of MS2 coat protein (MS2 coat protein [1]; input ligand: none) [nM] | apparent KD of MS2 coat protein (MS2 coat protein [2]) [nM] | apparent KD of MS2 coat protein (MS2 coat protein [3]) [nM] |
| --- | --- | --- | --- | --- |
| AAAAUACAUGAGGAUCACCCAUGUGAAAAUAUGGGAGGAUAUACCGAAAAAAAAAAAACGGUAGAAGGCCCAAAAA [SS! 1 MT 7] |  |  | 18.7 | 43.5 |
| UAAAAAACGUAUGAGGAUAUCCAAAAUAAAACAUGAGGAUCACCCAUGUGAAUAAAAUAACAAUGGGAGAAGGCAUACGUAUCAU [Mat - Same state - Malcolm Mod - D138] |  |  | 46.3 | 20.8 |
| AAGACACAUGAGGAUCACCCAUGUCAAGAGAGACGAGGAUAUCUGAAAAAAAAAAAAAAAGGAGAAGGCGUGAAAA [Same State of Confusion] |  |  | 33.5 | 69.3 |
| CACAGGGAUUCAGGAUAUAUUAGCCGAGGCCGCGUAGAAGGGAAAUCCUGACAUGAGGAUCACCCAUGUUAACCCACCUUCCAU [Fingerlickinggood#3] | 22.9 | 27.3 |  |  |
| AAAAACAUGGUGCAGGAUAUAUUAAUAGUCACAUGAGGAUCACCCAUGUUCAUAUAUAUGAACGAGUAGAAGGGCGAUGAAAAAA [Mat - Same state - Malcolm Mod - D110] |  |  | 181 | 541 |
| UAGAUAUGGUGAGGAUAUGCAAAGGAUCACCUUGUAGAAGGCAUCAGGGUAGAAGGUGCAAGGAUCACCUGUAAGGAUAUAUCC [pwkr2 ssNG1 DX.32] | 448 | 1670 |  |  |
| UUCAAAGGGUGAGGAUAUGCACAGGAUCACCGUGUAGAAGGCAUCAGGUAGAAGGUGCAGAGGAUCACCCUGUAAGGAUAUAUC [pwkr2 ssNG1 DX.15] | 719 | 1020 |  |  |
| GCAAAUGGGCGAGGAUAUGGGACGGGCCUAAACAGGGCACAUGAGGAUCACCCAUGUCACACGACCCAGAAGGCGCUAAGAACG [Bemave] | 144 | 399 |  |  |
| AGAAAACAUGAGGAUCACCCAUGUAGAAAUAUGGGAGGAUAUACAAAGACGAAAGUCGAAGUAGAAGGCCUAAAGA [Mat - Same State 1 - Meechl mod - D123] |  |  | 22 | 58.7 |
| AAAAAAAAAAGGCAGGAUAUUCAAAAAAAAACAUGAGGAUCACCCAUGUAAAAAAAAAAAAAAUGGAAGAAGGGCCAAAAAAAAAA [Fiskers Same State 2 D1] |  |  | 18.8 | 28 |
| AAAACACAUGAGGAUCACCCAUGUAGAAAUACUGGAGGAUAUGCUAAAACGAAAGACAAUGUAGAAGGCCGAAAAG [saturn 11] |  |  | 71.6 | 208 |
| GCCAACUUAUGAGGAUAUGGCACCUUAUUGGUGCCAGAAGGCAUGUCAAUUGACAUGAGGAUCACCCAUGUAUUAUAGUUGGCA [Fiskers NG1ss - 20 m2] | 112 | 724 |  |  |
| GCAGAAGGUGCGGAGGAUCACCCUGUAAGGAUAUGCAUUAGCAAGGAUAUACAGAGGAUCACCCUGUAGAAGGUGCACUUCUGA [pwkr2 ssNG3 DX.8] | 2120 | 850 |  |  |
| GGGAGACAUGAGGAUCACCCAUGUGAGAAGAGGCGAGGAUAUCGAAAGAAAGAAGAGAAACGAGAAGGCGCGAGGU [salish99-SS1-055] |  |  | 39.8 | 72.3 |
| GGAAAUAAAAGAGAGGAUAUCCAAAGGAAAACAUGAGGAUCACCCAUGUAAAAGGAAGGAAAGUGGGAGAAGGCUCAAAAUAAGG [salish99-ss2-008] |  |  | 29.6 | 49.9 |
| GGCAAACAUGAGGAUCACCCAUGUCAGUGCUAUCAAGGAUAUGGGAUGACGGAAGGUCGGCCAGAAGGUGAGAAAG [Quededma] |  |  | 233 | 406 |
| AAAUAAAGGACUGAGGAUAUACCACAUGAAACAUGAGGAUCACCCAUGUUAAAAAACAAAGGGUGGUAGAAGGCAGUCCACAAAC [Same State 2.5f ( so lets mod hyphema)] |  |  | 9.26 | 12.1 |
| GAAAAACAUGAGGAUCACCCAUGUAGAAAUAUGGGAGGAUAUACAAAGUCGAAAGUCAAAGUAGAAGGCCUAAAAG [Garnet 26] |  |  | 40.7 | 170 |
| CGGAGACAUGAGGAUCACCCAUGUGAGAAGAGGCGAGGAUAUCGAAAGAAAGAAGAGAAACGAGAAGGCGCGAGUG [salish99-SS1-074] |  |  | 21.9 | 32.9 |
